One test deals with dyn1_human DNM1 (UniProt Q05193).
A further test has as its target mfn1_mouse Mfn1 (UniProt Q811U4).

The results in this text go back to IntAct's records for PubMed 24282027.

Chain of UniProt Q811U4 (Q811U4 whole entry): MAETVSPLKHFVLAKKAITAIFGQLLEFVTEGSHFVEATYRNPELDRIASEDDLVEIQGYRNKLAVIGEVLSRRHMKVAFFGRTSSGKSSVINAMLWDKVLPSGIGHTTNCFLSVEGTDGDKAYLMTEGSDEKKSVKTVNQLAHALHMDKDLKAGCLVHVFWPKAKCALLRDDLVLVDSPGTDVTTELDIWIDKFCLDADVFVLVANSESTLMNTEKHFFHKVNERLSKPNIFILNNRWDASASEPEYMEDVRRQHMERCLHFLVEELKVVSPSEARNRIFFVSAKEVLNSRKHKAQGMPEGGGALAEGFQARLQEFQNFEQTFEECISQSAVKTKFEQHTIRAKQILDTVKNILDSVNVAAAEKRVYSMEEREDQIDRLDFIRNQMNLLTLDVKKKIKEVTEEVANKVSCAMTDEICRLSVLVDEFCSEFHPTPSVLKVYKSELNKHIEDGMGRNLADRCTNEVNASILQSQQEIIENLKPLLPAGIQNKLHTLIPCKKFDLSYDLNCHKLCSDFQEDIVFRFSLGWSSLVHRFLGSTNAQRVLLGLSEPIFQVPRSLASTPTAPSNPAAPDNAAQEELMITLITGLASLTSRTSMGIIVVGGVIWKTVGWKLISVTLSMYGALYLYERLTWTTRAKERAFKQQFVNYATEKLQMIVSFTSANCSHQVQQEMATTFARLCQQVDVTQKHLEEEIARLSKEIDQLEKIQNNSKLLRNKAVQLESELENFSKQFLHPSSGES
Chain of UniProt Q05193 (Q05193 whole entry): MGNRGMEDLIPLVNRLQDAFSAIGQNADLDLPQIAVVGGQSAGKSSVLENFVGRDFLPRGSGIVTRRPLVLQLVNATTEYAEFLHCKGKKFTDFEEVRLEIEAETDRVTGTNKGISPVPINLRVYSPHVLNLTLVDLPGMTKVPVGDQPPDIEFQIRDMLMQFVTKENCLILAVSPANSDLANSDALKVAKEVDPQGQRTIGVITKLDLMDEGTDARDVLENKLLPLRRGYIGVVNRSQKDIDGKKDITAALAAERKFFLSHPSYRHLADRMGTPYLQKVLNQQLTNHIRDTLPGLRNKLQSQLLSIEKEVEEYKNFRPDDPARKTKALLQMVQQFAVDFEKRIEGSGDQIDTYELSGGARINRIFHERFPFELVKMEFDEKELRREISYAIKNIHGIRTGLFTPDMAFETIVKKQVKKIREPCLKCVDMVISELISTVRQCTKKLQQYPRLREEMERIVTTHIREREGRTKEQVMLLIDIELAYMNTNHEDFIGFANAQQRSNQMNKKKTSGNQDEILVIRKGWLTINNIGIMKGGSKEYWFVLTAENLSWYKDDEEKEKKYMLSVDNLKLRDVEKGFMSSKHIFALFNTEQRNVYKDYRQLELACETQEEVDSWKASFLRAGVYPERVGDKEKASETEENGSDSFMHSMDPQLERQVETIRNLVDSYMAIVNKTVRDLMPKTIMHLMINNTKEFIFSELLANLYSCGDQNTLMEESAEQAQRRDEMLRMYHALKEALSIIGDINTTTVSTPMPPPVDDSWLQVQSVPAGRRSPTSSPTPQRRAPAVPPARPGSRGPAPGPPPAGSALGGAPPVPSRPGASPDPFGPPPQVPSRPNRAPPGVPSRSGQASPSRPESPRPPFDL

In the case of “Leucine-rich repeat serine/threonine-protein kinase 2 (Homo sapiens), Q5S007 G2019S”, the “effect of a mutation on the interaction” value with dyn1_human DNM1 and with mfn1_mouse Mfn1 was “increasing interaction” in each case.
